{"source": "paper PMC6718402", "about": "“The structural basis of lipid scrambling and inactivation in the endoplasmic reticulum scramblase TMEM16K” (Nature Communications, 2019)", "target": "the molecule itself", "assay": "crystal structure; TMEM16K purified in UDM/CHS, crystallised in lipidic cubic phase (MAG 7.9; 0.1 M MES pH 6.0, 0.1 M NaCl, 0.1 M CaCl2, 30% PEG300) and by sitting drop vapour diffusion (0.1 M HEPES pH 7.0, 0.1 M calcium acetate, 22% PEG400); open groove conformation"}
{"protein": "human TMEM16K (anoctamin-10), full length (natural protein, UniProt Q9NW15-1 1-660, looked up, The tag was removed with TEV protease before size exclusion, so residues of the TEV site may remain at the C-terminus; Modelled residues: Ser14-Gln639 (LCP crystal), Ser13-Lys641 (2 mM Ca2+ cryo-EM); the purification is described as similar to that for crystallisation (Sf9); also called hTMEM16K; ANO10; source: Sf9 cells (baculovirus), purified in UDM/CHS (Talon resin, TEV cleavage, Superose 6 …)) MKVTLSALDTSESSFTPLVVIELAQDVKEETKEWLKNRIIAKKKDGGAQLLFRPLLNKYEQETLENQNLYLVGASKIRMLLGAEAVGLVKECNDNTMRAFTYRTRQNFKGFDDNNDDFLTMAECQFIIKHELENLRAKDEKMIPGYPQAKLYPGKSLLRRLLTSGIVIQVFPLHDSEALKKLEDTWYTRFALKYQPIDSIRGYFGETIALYFGFLEYFTFALIPMAVIGLPYYLFVWEDYDKYVIFASFNLIWSTVILELWKRGCANMTYRWGTLLMKRKFEEPRPGFHGVLGINSITGKEEPLYPSYKRQLRIYLVSLPFVCLCLYFSLYVMMIYFDMEVWALGLHENSGSEWTSVLLYVPSIIYAIVIEIMNRLYRYAAEFLTSWENHRLESAYQNHLILKVLVFNFLNCFASLFYIAFVLKDMKLLRQSLATLLITSQILNQIMESFLPYWLQRKHGVRVKRKVQALKADIDATLYEQVILEKEMGTYLGTFDDYLELFLQFGYVSLFSCVYPLAAAFAVLNNFTEVNSDALKMCRVFKRPFSEPSANIGVWQLAFETMSVISVVTNCALIGMSPQVNAVFPESKADLILIVVAVEHALLALKFILAFAIPDKPRHIQMKLARLEFESLEALKQQQMKLVTENLKEEPMESGKEKAT", "values": [{"measurement": "stoichiometry N", "result": 2}]}
